Test [1] concerns the target human C1q (Calbiochem) (human, UniProt P02745 23-245; P02746 28-253; P02747 29-245). Description: ELISA: antibody coated on the plate at the concentration shown, human C1q added, detected with HRP anti-human C1q, OD 450 nm. A general note: An ELISA detects its analyte on a solid surface through an enzyme-linked reagent.
The target in test [2] is T1, Soluble human FcRn (human, UniProt P55899 24-297; P61769 21-119).
T1 construct: also called Biotinylated-FcRn
Description: SPR (Biacore T200, pH 7.4, 25 °C): biotinylated FcRn captured on a CAP chip; antibody injected at 100 nM alone (Ab alone) or as 1:1 complex with trimeric CD154 (CD154 IC); binding level / capture level.

For test [3], the target named is T2, human FcγRIa (human, UniProt P12314 16-292).
T2 construct: also called human FcγR1a
Description: SPR (Biacore T200, pH 7.4, 25 °C): His-tagged FcγR captured by anti-His antibody; antibody injected at 100 nM alone (Ab alone) or as 1:1 complex with trimeric CD154 (CD154 IC); binding level / capture level [A]. On the technique in general: In SPR one partner is held on a chip, and binding of the other changes the refractive index at the surface.

The target in test [4] is T3, human FcγRIIIb (NA2) (human, UniProt O75015 17-200).
T3 construct: also called human FcγR3b allelic variant NA2
T3 chain: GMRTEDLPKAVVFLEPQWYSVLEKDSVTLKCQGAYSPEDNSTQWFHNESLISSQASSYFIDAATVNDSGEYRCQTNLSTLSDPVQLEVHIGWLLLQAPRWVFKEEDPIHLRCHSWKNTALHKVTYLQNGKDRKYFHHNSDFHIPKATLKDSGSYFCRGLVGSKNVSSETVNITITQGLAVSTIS
In words: SPR (Biacore T200, pH 7.4, 25 °C): His-tagged FcγR captured by anti-His antibody; antibody injected at 100 nM alone (Ab alone) or as 1:1 complex with trimeric CD154 (CD154 IC); binding level / capture level [H].

Test [5] deals with T4, mouse FcγRIV (mouse, UniProt A0A0B4J1G0 21-203).
T4 construct: also called mFcγRIV; mouse FcγR4
T4 sequence: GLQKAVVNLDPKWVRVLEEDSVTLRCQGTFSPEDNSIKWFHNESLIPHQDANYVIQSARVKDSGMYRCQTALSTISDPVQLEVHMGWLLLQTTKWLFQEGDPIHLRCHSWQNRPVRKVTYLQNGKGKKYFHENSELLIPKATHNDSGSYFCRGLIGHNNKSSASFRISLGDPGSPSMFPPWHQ
In words: SPR (Biacore T200, pH 7.4, 25 °C): His-tagged FcγR captured by anti-His antibody; antibody injected at 100 nM alone (Ab alone) or as 1:1 complex with trimeric CD154 (CD154 IC); binding level / capture level [D].

T1 sequence (P55899 24-297 limits assumed, chain 1 of 2): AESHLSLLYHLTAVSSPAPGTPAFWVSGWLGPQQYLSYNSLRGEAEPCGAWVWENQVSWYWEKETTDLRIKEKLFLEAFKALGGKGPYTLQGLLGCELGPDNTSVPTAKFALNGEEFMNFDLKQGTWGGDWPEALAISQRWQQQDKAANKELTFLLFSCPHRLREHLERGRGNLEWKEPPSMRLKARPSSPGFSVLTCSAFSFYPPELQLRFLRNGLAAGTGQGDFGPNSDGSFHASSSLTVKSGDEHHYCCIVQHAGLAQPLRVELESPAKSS
T1 sequence (P61769 21-119 limits assumed, chain 2 of 2): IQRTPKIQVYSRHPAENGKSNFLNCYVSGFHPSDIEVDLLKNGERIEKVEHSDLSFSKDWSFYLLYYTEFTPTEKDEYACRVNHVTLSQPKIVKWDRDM
human C1q (Calbiochem), sequence (P02745 23-245 limits assumed, chain 1 of 3): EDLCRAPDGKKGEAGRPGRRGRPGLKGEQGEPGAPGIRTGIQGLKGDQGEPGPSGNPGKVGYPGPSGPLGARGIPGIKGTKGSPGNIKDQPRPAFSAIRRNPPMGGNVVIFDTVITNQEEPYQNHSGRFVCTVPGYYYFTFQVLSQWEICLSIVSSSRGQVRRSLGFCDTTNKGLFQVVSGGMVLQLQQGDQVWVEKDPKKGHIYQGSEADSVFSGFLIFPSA
human C1q (Calbiochem), sequence (P02746 28-253 limits assumed, chain 2 of 3): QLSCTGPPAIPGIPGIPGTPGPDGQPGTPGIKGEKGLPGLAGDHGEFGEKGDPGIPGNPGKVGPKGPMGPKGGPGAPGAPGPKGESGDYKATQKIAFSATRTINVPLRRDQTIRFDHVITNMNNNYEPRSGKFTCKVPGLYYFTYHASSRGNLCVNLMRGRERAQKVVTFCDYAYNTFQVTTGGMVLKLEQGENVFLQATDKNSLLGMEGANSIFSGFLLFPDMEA
human C1q (Calbiochem), sequence (P02747 29-245 limits assumed, chain 3 of 3): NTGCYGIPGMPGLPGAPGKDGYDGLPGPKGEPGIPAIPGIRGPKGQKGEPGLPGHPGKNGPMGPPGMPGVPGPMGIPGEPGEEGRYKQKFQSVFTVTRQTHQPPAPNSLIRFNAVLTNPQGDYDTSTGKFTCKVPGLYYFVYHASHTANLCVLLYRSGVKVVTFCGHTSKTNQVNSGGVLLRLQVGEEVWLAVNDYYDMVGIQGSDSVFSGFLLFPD
T2 sequence (P12314 16-292 limits assumed): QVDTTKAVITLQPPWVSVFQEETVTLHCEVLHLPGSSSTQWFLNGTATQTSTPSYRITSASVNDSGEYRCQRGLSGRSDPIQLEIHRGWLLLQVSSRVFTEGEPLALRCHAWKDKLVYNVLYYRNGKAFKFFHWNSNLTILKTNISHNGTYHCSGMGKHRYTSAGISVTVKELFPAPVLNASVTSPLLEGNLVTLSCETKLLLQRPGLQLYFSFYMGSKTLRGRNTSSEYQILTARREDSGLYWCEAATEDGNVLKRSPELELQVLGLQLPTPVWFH

B1: Anti-CD154 antibody (SLAPH0336a/SLAPL0336a) with Fc variant LALA+ACT3 (SG1044) (antibody)
heavy: EVQLVESGGGSVKPGGSLKLSCAASGFTFSDHYMYWVRQTPEKRLEWVAIISGGGSYTSYPDSMKGRFTISRDNAKNILHLQMSSLKSEDTAMYYCTRESNGKPGFAYWGQGTLVTVSAASTKGPSVFPLAPSSKSTSGGTAALGCLVKDYFPEPVTVSWNSGALTSGVHTFPAVLQSSGLYSLSSVVTVPSSSLGTQTYICNVNHKPSNTKVDKRVEPKSCDKTHTCPPCPAPEAAGGPSVFLFPPKPKDTLMISRTPEVTCVVVDVSHEDPEVKFNWYVDGVEVHNAKTKPREEQYNSTYRVVSVLTVLHQDWLNGKEYKCKVSNKALPAPIEKTISKAKGQPREPQVYTLPPSREEMTKNQVSLTCLVKGFYPSDIAVEWESNGQPENNYKTTPPVLDSDGSFFLYSKLTVDKSRWQQGNVFSCSVLHEALHAHTTRKELSLSP
light: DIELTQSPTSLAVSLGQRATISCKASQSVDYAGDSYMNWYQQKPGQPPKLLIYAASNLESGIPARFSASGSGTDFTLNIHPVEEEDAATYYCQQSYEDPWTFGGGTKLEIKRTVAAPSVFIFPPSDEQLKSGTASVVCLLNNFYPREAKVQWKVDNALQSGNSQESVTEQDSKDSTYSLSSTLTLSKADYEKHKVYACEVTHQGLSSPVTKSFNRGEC
Regarding B1, the binding result is reported as “binds” in test [1]; “binds” in test [2]; “binds” in test [3]; “no binding (tested: 100 nM)” in test [4]; “no binding (tested: 100 nM)” in test [5].

B2: Anti-CD154 antibody (SLAPH0336a/SLAPL0336a) with Fc variant LALA+ACT5 (SG1045) (antibody)
heavy: EVQLVESGGGSVKPGGSLKLSCAASGFTFSDHYMYWVRQTPEKRLEWVAIISGGGSYTSYPDSMKGRFTISRDNAKNILHLQMSSLKSEDTAMYYCTRESNGKPGFAYWGQGTLVTVSAASTKGPSVFPLAPSSKSTSGGTAALGCLVKDYFPEPVTVSWNSGALTSGVHTFPAVLQSSGLYSLSSVVTVPSSSLGTQTYICNVNHKPSNTKVDKRVEPKSCDKTHTCPPCPAPEAAGGPSVFLFPPKPKDTLMISRTPEVTCVVVDVSHEDPEVKFNWYVDGVEVHNAKTKPREEQYNSTYRVVSVLTVLHQDWLNGKEYKCKVSNKALPAPIEKTISKAKGQPREPQVYTLPPSREEMTKNQVSLTCLVKGFYPSDIAVEWESNGQPENNYKTTPPVLDSDGSFFLYSKLTVDKSRWQQGNVFSCSVLHEALHAHYTRKELSLSP
light: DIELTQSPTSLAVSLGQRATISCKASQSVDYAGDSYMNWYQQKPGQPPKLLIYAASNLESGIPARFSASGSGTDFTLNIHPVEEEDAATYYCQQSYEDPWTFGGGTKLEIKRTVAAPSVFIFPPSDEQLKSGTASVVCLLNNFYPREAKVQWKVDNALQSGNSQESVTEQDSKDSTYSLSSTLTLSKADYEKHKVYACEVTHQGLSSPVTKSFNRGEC
For the molecule B2, the binding result in test [1] is “binds”; in test [2], “binds”; in test [3], “binds”; in test [4] it was “no binding (tested: 100 nM)”; in test [5] it was “no binding (tested: 100 nM)”.

B3: Anti-CD154 antibody (SLAPH0336a/SLAPL0336a) with Fc variant LALA+ACT3+KAES (SG1105) (antibody)
heavy: EVQLVESGGGSVKPGGSLKLSCAASGFTFSDHYMYWVRQTPEKRLEWVAIISGGGSYTSYPDSMKGRFTISRDNAKNILHLQMSSLKSEDTAMYYCTRESNGKPGFAYWGQGTLVTVSAASTKGPSVFPLAPSSKSTSGGTAALGCLVKDYFPEPVTVSWNSGALTSGVHTFPAVLQSSGLYSLSSVVTVPSSSLGTQTYICNVNHKPSNTKVDKRVEPKSCDKTHTCPPCPAPEAAGGPSVFLFPPKPKDTLMISRTPEVTCVVVDVSHEDPEVKFNWYVDGVEVHNAKTKPREEQYNSTYRVVSVLTVLHQDWLNGKEYKCKVSNAALPAPISKTISKAKGQPREPQVYTLPPSREEMTKNQVSLTCLVKGFYPSDIAVEWESNGQPENNYKTTPPVLDSDGSFFLYSKLTVDKSRWQQGNVFSCSVLHEALHAHTTRKELSLSP
light: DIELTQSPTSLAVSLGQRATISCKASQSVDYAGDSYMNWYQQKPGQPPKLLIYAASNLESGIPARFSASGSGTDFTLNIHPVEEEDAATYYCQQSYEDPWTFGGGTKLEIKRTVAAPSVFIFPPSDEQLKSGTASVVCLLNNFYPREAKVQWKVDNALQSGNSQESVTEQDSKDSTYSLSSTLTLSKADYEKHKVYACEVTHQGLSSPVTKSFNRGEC
notes: also called LALA+KAES+ACT3
As for B3, the binding result was “binds” in test [1]; “binds” in test [2]; “binds” in test [3]; “no binding (tested: 100 nM)” in test [4]; “no binding (tested: 100 nM)” in test [5].

B4: Anti-CD154 antibody (SLAPH0336a/SLAPL0336a) with Fc variant LALA+ACT5+KAES (SG1106) (antibody)
heavy: EVQLVESGGGSVKPGGSLKLSCAASGFTFSDHYMYWVRQTPEKRLEWVAIISGGGSYTSYPDSMKGRFTISRDNAKNILHLQMSSLKSEDTAMYYCTRESNGKPGFAYWGQGTLVTVSAASTKGPSVFPLAPSSKSTSGGTAALGCLVKDYFPEPVTVSWNSGALTSGVHTFPAVLQSSGLYSLSSVVTVPSSSLGTQTYICNVNHKPSNTKVDKRVEPKSCDKTHTCPPCPAPEAAGGPSVFLFPPKPKDTLMISRTPEVTCVVVDVSHEDPEVKFNWYVDGVEVHNAKTKPREEQYNSTYRVVSVLTVLHQDWLNGKEYKCKVSNAALPAPISKTISKAKGQPREPQVYTLPPSREEMTKNQVSLTCLVKGFYPSDIAVEWESNGQPENNYKTTPPVLDSDGSFFLYSKLTVDKSRWQQGNVFSCSVLHEALHAHYTRKELSLSP
light: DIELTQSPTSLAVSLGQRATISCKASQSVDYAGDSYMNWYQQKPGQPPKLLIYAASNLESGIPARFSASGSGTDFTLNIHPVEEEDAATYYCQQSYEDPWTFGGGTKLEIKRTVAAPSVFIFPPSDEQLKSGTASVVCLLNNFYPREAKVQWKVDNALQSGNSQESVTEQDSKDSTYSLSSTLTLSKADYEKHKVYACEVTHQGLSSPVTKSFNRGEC
notes: also called LALA+KAES+ACT5
For B4, the binding result is “binds” in test [1]; “binds” in test [2]; “binds” in test [3]; “no binding (tested: 100 nM)” in test [4]; “no binding (tested: 100 nM)” in test [5].

For the origin of these results see patent US20190218277A1 (Chugai, published 2019).
